Results from publication PMC11836926.

How the values were obtained:
Assay in all cases: potentiometry
Asp127 = details: 298 K; 0.1 M NaClO4; none (HClO4-acidified solution titrated with 0.1 M carbonate-free NaOH under argon); free (apo) peptide
Cys143 = details: 298 K, 0.1 M NaClO4, none (HClO4-acidified solution titrated with 0.1 M carbonate-free NaOH under argon)
His323 = details: 298 K, 0.1 M NaClO4, none (HClO4-acidified solution titrated with 0.1 M carbonate-free NaOH under argon)
Lys70 = details: 298 K, 0.1 M NaClO4, none (HClO4-acidified solution titrated with 0.1 M carbonate-free NaOH under argon)
[1] = Cu(II)-bound, mononuclear 1:1 complex

## GMMGMHQGHGMMAMD
Asp127
  pKa: 3.80

## GACPNRMDAAAAAAAADHIMD
Cys143; [1]
  pKa: 7.49
Cys143; free (apo) peptide
  pKa: 9.56
His323; [1]
  pKa: 5.05
His323; free (apo) peptide
  pKa: 6.92

## EMMTPHHQDAIDMAEMALQKAEHPE
Lys70; [1]
  pKa: 9.56
Lys70; free (apo) peptide
  pKa: 9.94
